Data on two molecules can be found in patent publication US20200231681A1 (CHONG KUN DANG PHARMACEUTICAL, published 2020).

Assay [1] concerns the target T1, human c-Met ECD (ACROBiosystems, MET-H5227) (human, UniProt P08581 25-932).
T1 construct: extracellular domain; Bought protein
Briefly: SPR (BIAcore), antibody captured by anti-human IgG Fc, antigen as analyte, 1:1 Langmuir. As for the experimental part:
(§1) The antibodies were diluted in HBS-EP buffer (0.01 M HEPES pH 7.4, 0.15 M NaCl, 3 mM EDTA and 0.005% (v/v) Surfactant P20) at a concentration of 1-2 μg/ml, after which the resulting antibodies were injected into a CM5 chip with an anti-human Ig Fc fixed thereto at a flow rate of 30 μl/min for 10-120 seconds, and then captured in a range of 150-200 RU. Each antigen was used after being diluted at 10, 5, 2.5, 1.25, 0.625, 0.3125 and 0.15625 nM, after which the resulting antigens were sequentially injected from a lower concentration. Then, the resulting antigens were injected at a flow rate of 30 μl/min for 5 minutes to carry out binding, after which a running buffer was injected thereinto for 10-15 minutes to carry out a dissociation. 15 μl of 10 mM Glycine-HCl (pH 1.5) was used to revive the chip.

Assay [2] concerns the target T2, human EGFR ECD strep (ACROBiosystems, EGR-H5285) (human, UniProt P00533 25-645).
T2 construct: extracellular domain; Bought protein
Described as above. As for the experimental part: as §1

The target in assay [3] is T3, cynomolgus monkey c-Met ECD (SiNo. Biological, 90304-CO8H) (cynomolgus monkey, UniProt A0A2K5UM36 25-932).
T3 construct: not shown: The vendor's tag
The assay is described as above. As for the experimental part: as §1

Assay [4] addresses T4, cynomolgus monkey EGFR ECD (SiNo. Biological, 90285-008B) (cynomolgus monkey).
T4 construct: extracellular domain
Described as above. As for the experimental part: as §1

Assay [5] concerns the target T5, mouse EGFR (SiNo. Biological Inc, 51091-M08H) (mouse, UniProt Q01279 25-647).
T5 construct: extracellular domain
Briefly: ELISA, antigen coated at 2 µg/ml, antibody 6.4 pM to 100 nM, anti-human IgG F(ab')2-HRP, TMB, O.D. at 450 nm [panel Mouse EGFR]. As for the experimental part:
(§2) Particularly, mouse c-Met (SiNo. Biological Inc, 50622-M08H), cynomolgus monkey c-Met (SiNo. Biological Inc, 90304-CO8H), human c-Met (R&D Systems, 358-MT), mouse EGFR (SiNo. Biological Inc, 51091-M08H), cynomolgus monkey EGFR (SiNo. Biological, 90285-008B) and human EGFR (Abcam, 155639) antigens were all divided into a 96-well plate at a concentration of 2 μg/ml, after which the resulting plate was reacted at 4° C. overnight.
(§3) Color development was made by using TMB (Sigma, T4444) solution, wherein its value was measured at an optical density of 450 nm and its ELISA results are shown in FIG. 9.

The target of assay [6] is T6, mouse c-Met (SiNo. Biological Inc, 50622-M08H) (mouse, UniProt P16056 25-931).
T6 construct: extracellular domain
Briefly: ELISA, antigen coated at 2 µg/ml, antibody 6.4 pM to 100 nM, anti-human IgG F(ab')2-HRP, TMB, O.D. at 450 nm [panel Mouse cMet]. How it is done: as §2, §3
For orientation: In an ELISA, binding on a coated surface is turned into a signal by an enzyme label.

B1: hu8C4 AH71 (antibody, V domains shown)
VH: EVQLVESGGGLVQPGGSLRLSCAASGYTFSDYYINWVRQAPGKGLEWIGEIFPGWGNTHFSARFKGRATLSADKSKNTAYLQMNSLRAEDTAVYYCAGQDYGFLYWGQGTLVTVSS
VL: DIQMTQSPSSLSASVGDRVTITCGASENIYGALNWYQQKPGKAPKLLIYGATNLADGVPSRFSGSGSGRDFTFTISSLQPEDIATYYCQNVLSSPYTFGQGTKVEIK
As a reminder, the Kd is the constant that tells how readily two partners part at equilibrium. For orientation: koff means a measure of how fast the partners let go of each other. The kon is the rate constant with which the complex forms. As to B1, in assay [1], the Kd amounted to 0.0999 nM, the koff was 8.3e-05 s⁻¹ and the kon was determined as 831000 M⁻¹ s⁻¹.

B2: hu8C4 × Vectibix scFv bispecific antibody (bispecific antibody, human IgG2)
heavy: not shown
VL: DIQMTQSPSSLSASVGDRVTITCGASENIYGALNWYQQKPGKAPKLLIYGATNLADGVPSRFSGSGSGRDFTFTISSLQPEDIATYYCQNVLSSPYTFGQGTKVEIK
On to B2, for which the Kd in assay [2] was 1.62 nM; in assay [3] it was 0.434 nM; in assay [1], 0.278 nM; in assay [4], 0.894 nM. The koff in assay [2] was found to be 0.000126 s⁻¹; in assay [3], 0.000337 s⁻¹; in assay [1], 0.000204 s⁻¹; in assay [4] it was 0.000127 s⁻¹. In addition, the kon amounted to 77800 M⁻¹ s⁻¹ in assay [2], 777000 M⁻¹ s⁻¹ in assay [3], 734000 M⁻¹ s⁻¹ in assay [1] and 142000 M⁻¹ s⁻¹ in assay [4]. For the same molecule, the binding result in assay [5] and in assay [6] was “no binding (tested: 100 nM)” each time.
